Measurements as given in US20230135471A1, “UBIQUITIN VARIANTS WITH IMPROVED AFFINITY FOR 53BP1” (Integrated DNA Technologies, Inc., priority 2021, published 2023).

How the values were obtained:
[1] = molecular target: T1, fragment of 53BP1 (a.a. 1221-1718) (Homo sapiens, UniProt Q12888); assay: BACTH two-hybrid pooled screen in E. coli, FACS sorting of GFP positive cells and NGS enrichment of i53 amino acid changes; assay type: cell-based
T1 construct: a fragment of 53BP1 (a.a. 1221-1718); expressed in transfected cells; host or cells: E. coli DHM1
Text: (§1) In order to identify mutations that improve the affinity of i53 for 53BP1, the bacterial adenylate cyclase two-hybrid system (BACTH system) was used to screen for interaction between the two proteins. This method makes use of a B. pertussis calmodulin-dependent adenylate cyclase toxin. The catalytic domain of the toxin can be separated into two fragments (T18 and T25) that are able to associate in the presence of calmodulin but have minimal activity in its absence. If bait and prey proteins fused to T18 and T25 interact, then the catalytic activity is restored and cAMP is produced. In E. coli, cAMP binds to catabolite activator protein (CAP) that acts as a transcriptional activator for several genes. By expressing these fusion proteins in an E. coli strain that lacks endogenous adenylate cyclase and naturally lacks calmodulin, cAMP regulated protein expression can be used as a readout of bait-prey interaction. We engineered the screen so that eGFP will be expressed under the control of a cAMP-regulated promoter. The coding sequence for a fragment of 53BP1 (a.a. 1221-1718) containing the i53 interacting regions and i53 were cloned into T18 and T25 adenylate cyclase expression plasmids such that fusion proteins of each would be expressed. If a Ubv interacts with 53BP1, the T18 and T25 fragments will be brought together, adenylate cyclase activity will be restored, cAMP will be produced, and some portion of the bacterial population will be GFP positive.
A plasmid library was made consisting of Ubv-adenylate cyclase fragment fusion protein plasmids that had on average a single codon within the i53 coding region exchanged for a random NNK codon. Plasmids were transformed into DHM1 cells that lack endogenous adenylate cyclase and contain the plasmid for expression of the 53BP1 fragment fused to one of the adenylate cyclase fragments. Expression of eGFP was used as a readout of bait-prey interaction using fluorescence activated cell sorting (FACS) to sort for GFP positive bacteria. Plasmid DNA was isolated from both the sorted GFP positive bacteria (Positive) and from the original pre-sort population (Input) and was sequenced using NGS. Counts were merged for mutations that result in the same amino acid change using Enrich2 [25]. Enrichment was calculated as enrichment=log 2((read count for an amino acid change in the positive population/read count for an amino acid change in the input)/(synonymous change read count in the positive population/synonymous change read count in the input)). […] For each experiment, DHM1 cells were transformed with the Ubv fusion protein plasmid library in two separate replicates using a gene pulser (Bio-Rad). The i53-adenylate cyclase fragment fusion protein (published i53 peptide, SEQ ID NO:2) plasmid was also introduced separately as a control to estimate selection pressure. Cells were then grown and sorted using FACS and GFP positive cells were collected. Two separate experiments were conducted on separate days using different levels of selection pressure resulting in a different percent GFP positive for the i53 population (i.e. for cells that express published i53 peptide (SEQ ID NO:2) fused to one of the adenylate cyclase fragments).
(§2) There was a high degree of correlation between the two experiments and between replicates (FIG. 2). From these screens, about 230 amino acid changes were identified for which the average enrichment was positive for at least one of the experiments (Table 1). […] To validate that the amino acid changes identified from the pooled screen are reproducible on an individual basis, 24 amino acid changes identified from this screen were introduced individually into the i53 fusion protein plasmid and tested by flow cytometry for their effect on the percent positive population relative to i53 (FIG. 3). There was a strong correlation between the enrichment measured from the pooled screen and the percent reporter positive cells when mutations were screened individually.

[2] = molecular target: T1, fragment of 53BP1 (a.a. 1221-1718); assay: Individual two-hybrid screen of amino acid changes, percent GFP (reporter) positive cells by flow cytometry; assay type: cell-based
Text: as §1, §2

[3] = molecular target: 53BP1 (amino acids 1484-1603) fused to MBP (Homo sapiens, UniProt Q12888); assay: Biolayer interferometry (BLI) of purified His-tagged Ubvs, 1:1 binding model global fit; conditions: second experiment, longer association (360 seconds; i53 90 seconds)
Procedure: In order to assess the effect of mutations identified from the two-hybrid screen on the affinity of the Ubvs for 53BP1, Ubvs consisting of the i53 sequence with an N-terminal His tag and short flexible linker plus individual or combinations of screen-identified mutations were purified from E. coli (Table 3). Biolayer interferometry was used to measure the affinity of the purified proteins. Briefly, a purified Ubv was diluted in reaction buffer (1×PBS pH7.4, 0.1 mg/mL BSA, 0.001% Tween 20) to 2 ug/mL. Purified 53BP1 (amino acids 1484-1603) fused to MBP was diluted in reaction buffer to between 20 μM and 10 nM (Table 3, Table 4)). For each Ubv, 8 Ni-NTA sensor tips were hydrated and then loaded with the 2 ug/ml of a Ubv for 30 seconds. Sensor tips were then incubated in reaction buffer for 45 seconds to obtain a baseline. Tips were then moved into either empty buffer or seven different concentrations of purified 53BP1 and the association was measured. Tips were then moved back into reaction buffer and the dissociation was measured. Kon, Koff, and Kd were calculated using a 1:1 binding model using a global fit (Table 4).
A second experiment was performed using CM1 and CM7 using a longer association time (360 seconds) to allow binding to closer approach equilibrium. The BLI response vs 53BP1 fragment concentration was plotted in prism to calculate the Kd using a one site-specific binding nonlinear fit model. An i53 response was plotted on the same graph however the association time used (90 seconds) was shorter due to needing a shorter time to reach equilibrium because of the fast off rate of i53 (FIG. 5B, FIG. 5C, Table 4).

[4] = tested on: HDR at HPRT1 in HEK293 cells that constitutively express HiFi Cas9 / Jurkat cells; assay: HDR at HPRT1 by EcoR1 cleavage assay, Ubv delivered as expression plasmid; assay type: cell-based; conditions: 154 ng plasmid encoding His-tagged Ubv, versus LbCas12a crRNA plasmid negative control
Procedure: Error bars indicate the standard deviation from two replicates.
In order to test if CM1 is effective at increasing HDR rates when delivered in other forms, plasmid or mRNA encoding CM1 was introduced into cells and the effects on HDR rates were analyzed. […] After 72 hours, genomic DNA was extracted using QuickExtract (Lucigen) and editing was analyzed by PCR amplification of the HPRT1 target site followed by EcoR1 restriction enzyme digestion. Digested product was run on a Fragment Analyzer (AATI).

[5] = tested on: 53BP1 foci; conditions: introduced into cells; cited from earlier work
[6] = tested on: HDR; conditions: plasmid delivery, adeno-associated virus mediated gene delivery, or delivery of mRNA; cited from earlier work
[7] = tested on: HDR at a Cas9 cut site in CLTA in K562 cells; assay: HDR insertion of 729 bp GFP coding sequence at CLTA, measured by ONT sequencing; assay type: cell-based; conditions: dsDNA donor (large insert), Ubv 37.5 μM, IDT-E 1 μM for 24 hours
Procedure: FIG. 12A illustrates use of a ubiquitin variant with high affinity for 53BP1 provides an additional benefit to HDR over the use of a DNA-PK inhibitor alone. […] Ubiquitin variants were delivered alongside 2 μM Cas9 RNP at 37.5 μM final concentration. IDT-E was added to media post nucleofection for 24 hours at 1 μM final dose. Double stranded DNA donor with 200 bp homology arms was delivered at 1.5 μg per nucleofection.
(§3) We tested if our ubiquitin variants provided a further benefit over inhibition of common NHEJ pathway targets alone by using the DNA-PK inhibitor IDT enhancer (IDT-E) in combination with CM1 in the context of both large and small inserts (Table 7). […] Without limiting the claimed subject matter to a particular mode or mechanism of action, we hypothesize that our ubiquitin variants targeting 53BP1 will be a useful in facilitating increased HIDR when used in combination with other inhibitors of NHEJ pathway components.

[8] = tested on: HDR at a Cas9 cut site in MET in HEK293 cells; assay: HDR (6 nt insert) at MET measured by EcoR1 cleavage; assay type: cell-based; conditions: Alt-R HDR donor oligo (small insert), CM1 […], IDT-E 1 μM for 24 hours
Text: as §3

[9] = tested on: HDR at HPRT1 in HEK293 cells; assay: HDR at HPRT1 by EcoR1 cleavage assay, tag-free versus His-tagged CM1 protein; assay type: cell-based; conditions: HEK293, HPRT1, 50 μM to […] ubiquitin variant
Procedure: Data is shown for two biological replicates with lines connecting the means. The dashed line indicates the level of EcoR1 cleavage when no enhancer is used (n=3, standard deviation <2%).
A tag-free version of CM1 (CM1tf, SEQ ID NO:482) was compared with the His6-tagged version of CM1 (SEQ ID NO:241) for their ability to enhance HDR in HEK293 cells as has been described in previous examples. Briefly, 2 uM Cas9 RNP targeting a site in HPRT1 and 2 uM ssDNA donor containing 40 bp homology arms flanking a 6 bp EcoR1 cut site insert sequence were delivered into HEK293 cells with varying amounts of CM1tf (CM1tf, SEQ ID NO:482) or His-tagged CM1 (CM1; SEQ ID NO:241) using Lonza nucleofection. Genomic DNA was isolated after 48 hours, and editing was measured using an EcoR1 cleavage assay.

Sequence of 53BP1 (amino acids 1484-1603) fused to MBP (Q12888 1484-1603, looked up): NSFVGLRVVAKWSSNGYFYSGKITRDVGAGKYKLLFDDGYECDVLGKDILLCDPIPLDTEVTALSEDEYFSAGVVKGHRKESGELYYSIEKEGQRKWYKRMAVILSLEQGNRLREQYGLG
T1 sequence (Q12888 1221-1718): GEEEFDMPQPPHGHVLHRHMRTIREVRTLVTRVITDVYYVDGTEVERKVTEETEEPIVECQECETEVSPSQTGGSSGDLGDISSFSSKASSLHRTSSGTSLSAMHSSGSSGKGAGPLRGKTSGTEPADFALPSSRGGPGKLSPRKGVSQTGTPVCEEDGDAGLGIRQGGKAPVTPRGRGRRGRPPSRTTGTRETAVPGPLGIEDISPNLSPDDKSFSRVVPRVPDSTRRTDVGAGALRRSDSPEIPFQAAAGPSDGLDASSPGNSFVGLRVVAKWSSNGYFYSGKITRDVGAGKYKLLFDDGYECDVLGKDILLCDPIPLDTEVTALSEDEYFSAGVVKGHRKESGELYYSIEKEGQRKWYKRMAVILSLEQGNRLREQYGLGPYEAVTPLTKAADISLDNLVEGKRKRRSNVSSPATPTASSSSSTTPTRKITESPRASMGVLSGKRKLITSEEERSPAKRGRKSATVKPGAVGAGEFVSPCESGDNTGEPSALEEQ

| Substance | i53 percent positive ([1]; experiment one) | GFP positive population ([1]; high selection pressure experiment) [%] | GFP positive population ([1]; low selection pressure experiment) [%] | Percent GFP Positive Rep 1 ([2]; replicate 1, amino acid change in i53 fusion protein plasmid) [%] | Percent GFP Positive Rep 2 ([2]; replicate 2) [%] | Percent GFP Positive Rep 3 ([2]; replicate 3) [%] | Response ([3]; 53BP1 0.0102 μM) | Response ([3]; 53BP1 0.0511 μM) | Response ([3]; 53BP1 0.1022 μM) | Response ([3]; 53BP1 0.2045 μM) | Response ([3]; 53BP1 1.02 μM) | Response ([3]; 53BP1 5.11 μM) | Response ([3]; 53BP1 20.5 μM) | HDR rate [4] | formation of ionizing radiation induced 53BP1 foci [5] | rates of HDR [6] | rate of HDR [7] | rate of HDR [8] | ability to enhance HDR [9] |
| --- | --- | --- | --- | --- | --- | --- | --- | --- | --- | --- | --- | --- | --- | --- | --- | --- | --- | --- | --- |
| i53: published ubiquitin variant inhibitor of 53BP1 (Canny et al.); tested with N-terminal His tag and linker (SEQ ID NO:3) [reference compound] | approximately 30% | ~3 | ~17 | 9 | 7.6 | 11.8 | 0.0176 | 0.0537 | 0.104 | 0.1877 | 0.6247 | 1.2658 | 1.954 | increase in HDR rates | inhibited the formation ionizing radiation induced 53BP1 foci | improve the rates of HDR |  |  |  |
| CM7: i53 with K6R, K33H, A46Q, S65P; N-terminal His tag |  |  |  |  |  |  | 0.099 | 0.3578 | 0.5715 | 0.8611 | 1.5108 | 2.0067 | 2.4923 |  |  |  |  |  |  |
| CM1: i53 with K6R, T7M, T12M, T14E, K33H, A46Q, S65P, L67K, H68M; N-terminal His tag |  |  |  |  |  |  | 0.4913 | 1.3298 | 1.6825 | 2.0092 | 2.5002 | 2.738 | 2.9739 | larger increase in HDR rate |  |  | increase rates of HDR | increase rates of HDR |  |
| CM1tf: tag-free version of CM1 |  |  |  |  |  |  |  |  |  |  |  |  |  |  |  |  |  |  | equivalent to that of His-tagged CM1 |
